Measurements taken from patent US20230129258A1 (Bicycle, published 2023).
Starred links: 1 amine or outer side, 2 acyl side, 3 side chain; linkers in the order of their positions; H or OH if unused. Positions of bridges follow the written chain, without caps; N, C: chain ends. Non-standard residues stand in square brackets, D forms with d. Chains are numbered I, II in the order given. No end group written: not given here. dLys(PYA) = D-lysine Nε-acylated with 4-pentynoic acid, clicked (triazole) to the linker azide, O=C(CCc1cn([*:3])nn1)NCCCC[C@@H](N[*:1])C(=O)[*:2]; TATA = O=C(CC[*:1])N1CN(C(=O)CC[*:2])CN(C(=O)CC[*:3])C1; 1Nal = N[C@@H](Cc1cccc2ccccc12)C(=O)O; Hyp = O=C(O)[C@@H]1C[C@@H](O)CN1; hArg = N=C(N)NCCCC[C@H](N)C(=O)O; tBuAla = CC(C)(C)C[C@H](N)C(=O)O; Nle = CCCC[C@H](N)C(=O)O

What was measured:
[1] = target: T1, human CD137 extracellular domain (human, UniProt Q07011 24-186, biotinylated where captured on the streptavidin chip); assay: SPR, direct binding of BCY11863 to immobilized human CD137, 1:1 fit; the text calls the off rate very slow (avidity from two CD137 bicycles)
T1 construct: extracellular domain; Section 17 says only 'Recombinant human CD137 (R&D systems)'; also called CD137 (human); Recombinant human CD137 (R&D systems)
T1 sequence (Q07011 24-186): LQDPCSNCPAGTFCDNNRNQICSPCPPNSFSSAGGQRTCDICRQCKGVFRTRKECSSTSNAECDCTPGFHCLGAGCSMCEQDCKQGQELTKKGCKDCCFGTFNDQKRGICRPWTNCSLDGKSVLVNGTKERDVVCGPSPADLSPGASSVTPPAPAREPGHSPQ

[2] = target: T2, rat Nectin-4 extracellular domain (rat, UniProt D3ZET1 31-348, biotinylated where captured on the streptavidin chip); assay: SPR direct binding, biotinylated Nectin-4 ECD on streptavidin chip, 25° C., n = 6
T2 construct: extracellular domain
T2 sequence: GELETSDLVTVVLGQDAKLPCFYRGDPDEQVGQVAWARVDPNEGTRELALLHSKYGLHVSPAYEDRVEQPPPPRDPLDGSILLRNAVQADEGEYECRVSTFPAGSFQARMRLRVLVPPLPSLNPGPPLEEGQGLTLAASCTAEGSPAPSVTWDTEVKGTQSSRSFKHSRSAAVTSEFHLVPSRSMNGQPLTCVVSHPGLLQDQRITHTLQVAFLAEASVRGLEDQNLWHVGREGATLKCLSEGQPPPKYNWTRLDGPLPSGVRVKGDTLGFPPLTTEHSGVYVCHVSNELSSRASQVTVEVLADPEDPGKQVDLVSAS

[3] = target: T1, human CD137 extracellular domain; assay: SPR, direct binding of BCY11863 to immobilized human CD137, 1:1 fit; avidity from two CD137 bicycles
[4] = target: T1, human CD137 extracellular domain; assay: SPR dual binding, BCY11863 captured on biotinylated human Nectin-4, soluble CD137 ECD passed over, n = 4
[5] = target: T1, human CD137 extracellular domain; assay: dual binding SPR: BCY11863 captured on immobilized human Nectin-4, soluble human CD137 as analyte, 1:1 fit [ctd) D]
[6] = target: T3, CD137 on Jurkat reporter cells (Promega kit CS196005) (UniProt Q07011 24-255, limits assumed); assay: cell-based or functional assay
T3 sequence (Q07011 24-255 limits assumed): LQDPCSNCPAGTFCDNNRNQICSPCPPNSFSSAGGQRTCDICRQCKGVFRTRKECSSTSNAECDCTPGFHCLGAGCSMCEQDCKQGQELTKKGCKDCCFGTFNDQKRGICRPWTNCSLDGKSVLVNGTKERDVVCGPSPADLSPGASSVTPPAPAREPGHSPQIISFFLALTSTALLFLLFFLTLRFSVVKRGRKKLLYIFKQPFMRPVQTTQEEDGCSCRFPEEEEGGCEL

[7] = target: T4, human Nectin-4 extracellular domain (human, UniProt Q96NY8 32-349, biotinylated where captured on the streptavidin chip); assay: SPR sandwich assay, BCY11863 captured on biotinylated human CD137, soluble Nectin-4 ECD passed over, n = 4
T4 construct: extracellular domain; also called Nectin-4 (human); Biotinylated - Nectin-4 extracellular domain
T4 sequence (looked up): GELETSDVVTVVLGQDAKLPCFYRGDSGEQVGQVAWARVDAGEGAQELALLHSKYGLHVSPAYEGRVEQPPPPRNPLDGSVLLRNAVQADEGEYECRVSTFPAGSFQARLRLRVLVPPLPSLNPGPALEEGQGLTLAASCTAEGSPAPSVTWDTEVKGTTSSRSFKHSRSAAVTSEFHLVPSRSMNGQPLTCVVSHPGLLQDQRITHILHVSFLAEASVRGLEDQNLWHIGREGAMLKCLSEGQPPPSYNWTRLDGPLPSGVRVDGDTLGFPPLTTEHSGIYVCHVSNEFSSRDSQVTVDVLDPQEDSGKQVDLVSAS

[8] = target: T3, CD137 on Jurkat reporter cells (Promega …); assay: cell-based or functional assay; remark: listed apart in the source
[9] = target: T3, CD137 on Jurkat reporter cells (Promega …); assay: cell-based or functional assay; remark: listed apart in the source
[10] = target: T4, human Nectin-4 extracellular domain; assay: SPR, one example sensorgram (FIG. 21A), immobilized Nectin-4
[11] = target: T4, human Nectin-4 extracellular domain; assay: SPR, direct binding of BCY11863 to immobilized human Nectin-4, 1:1 fit

B1: heterotandem bicyclic peptide complex BCY11863 (peptide)
peptide 1: CP[1Nal][dD]CM[hArg]DWSTP[Hyp]WC
peptide 2: Ac-C[tBuAla]PE[dLys(PYA)]PYCFADPY[Nle]CA
modifications: linker I:1-I:5-I:15, II:1-II:8-II:15 via TATA; not fully specified (bridges); also: 1:2 complex: BCY8116 + 2x BCY8928
notes: also called Nectin-4/CD137 heterotandem
koff [1]: 0.00035 s⁻¹
Kd [2]: 15 nM
kon [3]: 952000 M⁻¹ s⁻¹
Kd [4]: 6.3 nM
Kd [5]: 6.26 nM
koff [5]: 0.00275 s⁻¹
kon [5]: 439000 M⁻¹ s⁻¹
Arithmetic mean EC50 (nM), CT26#7 co-culture [6]: 0.14 nM
Arithmetic mean EC50 (nM), HT1376 co-culture [6]: 0.52 nM
Arithmetic mean EC50 (nM), MC38#13 co-culture [6]: 0.31 nM
Arithmetic mean EC50 (nM), MDA-MB-468 co-culture [6]: 0.23 nM
Arithmetic mean EC50 (nM), NCI-H292 co-culture [6]: 0.28 nM
Arithmetic mean EC50 (nM), NCI-H322 co-culture [6]: 0.33 nM
Arithmetic mean EC50 (nM), T47D co-culture [6]: 0.42 nM
Kd [7]: 12 nM
EC50 (nM), NCI-H292 co-culture [8]: 0.168 nM
Fold Induction over Background, NCI-H292 co-culture [8]: 81 fold
Fold improvement in EC50 over BCY10000 on same plate, NCI-H292 [9]: 4.56 fold
Fold improvement in Emax over BCY10000 on same plate, NCI-H292 [9]: 2.16 fold
Kd [10]: 4.1 nM
koff [11]: 0.00229 s⁻¹
kon [11]: 561000 M⁻¹ s⁻¹
